Laboratory results from the supplement of paper PMC12764529.
± gives the half width of the 95% confidence interval.

Assays:
[1] = folding stability dG unfold (combined trypsin and chymotrypsin); higher = more stable
How it was run: (§1)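 Unfolding free energy was derived, per protease or combined, against a sequence-predicted unfolded-state K50 and a shared folded-state K50, starting from K50 inferred by Bayesian fitting of sequencing counts. Digestion with trypsin and chymotrypsin was carried out on designed mini-proteins under 80 residues without cysteine in a PA-tagged cDNA display construct. Only designs with AlphaFold2 dimer inter-PAE above 15 were kept.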

[2] = folding stability dG unfold from chymotrypsin proteolysis; higher = more stable
How it was run: as §1

[3] = folding stability dG unfold from trypsin proteolysis; higher = more stable
How it was run: as §1

Sequence	folding stability dG unfold [1] [kcal/mol]	folding stability dG unfold [2] [kcal/mol]	folding stability dG unfold [3] [kcal/mol]
SAGGSAMDLKIKKKERDPPNGTKKLTVEVPGWEVEINIERNPDGPYKIEIYAPNPAAKNAIKEFIKSAGGSA [r15_42_TrROS]	0.324 ± 0.2	0.488 ± 0.18	-0.275 ± 0.26
SAGGTLKVTEEEVSESEFESPGLPLRRTTTTYTLVDPVTGKPVPTSKKVTVETLETPEGRVLETVVTSSAGG [r13_24_JUSTAS]	-0.0697 ± 0.13	0.0434 ± 0.14	-0.45 ± 0.24
SAGGSAGGSAPVFTSPEEAEKYAREKLLREKPESHPDLVVNVNVTVTTEPDGTITIEIDYKESAGGSAGGSA [r18_440_JUSTAS]	1.29 ± 0.14	1.72 ± 0.086	0.932 ± 0.092
SAGGSAGGSAGELTVTVTVLLEDGTAVKIEARFELDENGNLHLEVKVEVVKLPELSPEDLSAGGSAGGSAGG [r11_728_TrROS_Hall]	2.74 ± 0.32	2.25 ± 0.2	3.4 ± 0.43
SAGGSAGGSKITVERNEDGELFVRITFKDGKTITIKAKSVEELKEKLKELGFDVKVEVVERKPSAGGSAGGS [r20_124_TrROS_Hall]	4.18 ± 0.087	4.58 ± 0.071	2.74 ± 0.084
SAGGSAPEALVFVERREDDSLTVVVLFPDGTLVTRRVEVRDEGVTVETETAPVLVIPEPGRLELALSAGGSA [r15_746_TrMRF]	1.14 ± 0.051	1.39 ± 0.046	0.595 ± 0.029
SAGGKVYRLPDGTRVLEVEVDGELYRLVVRRPDGEELVLEFESREEALEAAKALAEAGWEIVAVERVPSAGG [r13_727_TrROS_Hall]	0.86 ± 0.06	0.807 ± 0.062	0.787 ± 0.038
SGFKVYIPDADLDAAVAVAKALVEKGYDTLLVDSPEVLKAIKEAIPDVKVEPVPVLPPVPPLPGEAEALFSA [r9_639_TrMRF]	0.684 ± 0.076	0.573 ± 0.092	0.71 ± 0.021
SPEIKIELVYDEETEELYLEIEIRFPESEEEAIEALKKLLEELGFEVVEIEEIEVEEDGTVRIRVRIRKKSA [r9_876_TrROS_Hall]	> 6	4.47 ± 0.7	4.87 ± 0.31
SAGGSKKTIVIPVPPGMSVEQIAAELKAKLEELFPDLKVEVVEVKPDGYVKIKIDGKLILIKFPKPSAGGSA [r2_102_TrROS_Hall]	2.77 ± 0.063	3.18 ± 0.042	1.6 ± 0.049
SAGGSAGGSAGGSTILILDPETKKLYLIRIEKREDGKEELKLKVYEFDLKTGEMKEYELSAGGSAGGSAGGS [r10_1041_TrROS_Hall]	4.15 ± 0.19	4.68 ± 0.19	3.25 ± 0.2
SAGGKKVIVIEGLTEEEILEKIKEEFPEPVEVIIRRPDGYVVKITVDAKTREIKKVEVVKVPPPEKPSAGGS [r8_225_TrROS_Hall]	1.79 ± 0.29	2.01 ± 0.16	1.57 ± 0.15
SAGGSAGGSASPVPVVEVEITPVKLPGDETAAKITVLLEGDGEPVVVWFDSKDVEKVIEEVLASAGGSAGGS [r20_238_JUSTAS]	0.774 ± 0.11	0.847 ± 0.025	0.293 ± 0.12
SYIKIPFNVWMPPDNAEAMAEEFANNLAQKHGWKIKGIKPVEPVPSPDGEWYPFRVSITIRMPDPEAINASA [r9_302_TrROS]	1.82 ± 0.098	2.07 ± 0.13	1.62 ± 0.031
SAGGSAGGSAGYVVIPLDIDAEPGATVEITLPNGEKIEAIVEDHPDGLRSVRVGDGVILVPGSAGGSAGGSA [r18_372_TrMRF]	0.742 ± 0.087	0.827 ± 0.05	0.465 ± 0.032
SAGPFILVKFVTPDGRPLYYVIEIPESEEPEKLTLEQALEVAEAIAKALASKGGFEVKEVKIVSPEEFSAGG [r19_27_TrMRF]	3.66 ± 0.057	3.802 ± 0.023	3.43 ± 0.083
SAGMITLPTRGPEELIERLRAIAEELGLSEEDIEQFLRDLAEHATIEQDGDLLLITFQPPVPALPGEPESAG [r5_717_TrMRF]	1.74 ± 0.17	1.91 ± 0.037	1.23 ± 0.071
SAGGMVTITVSIEEGKGYAVITITIDDETLTIKIPIPNMTEEDIKAKAEEIAKELAEKYGIEEIKLESAGGS [r16_249_JUSTAS]	3.34 ± 0.32	3.37 ± 0.13	3.08 ± 0.16
SASKKPKLIIVDIVIKPEELKKMKPEELIEKILKELGIPKEKDVKIDLFLEPVELDGEEYYIIPALITNSAG [r14_334_TrMRF]	1.24 ± 0.28	1.08 ± 0.14	1.11 ± 0.13
SAGPNLENLEIVEIKAEVLPDNSVIVPLKVRNDNGEEEEVWGRVGNGIVTLTYPNGFPAVAFIPPSAFSAGG [r19_84_TrMRF]	0.651 ± 0.051	0.576 ± 0.089	0.683 ± 0.033
SAGMLTLRVVLPKEEAEARARALAEELRRRLGLPPGAKIEVKVVEYDEETGEVVVEVTIEVELPPGVEPSAG [r5_537_TrROS_Hall]	3.98 ± 0.095	3.64 ± 0.051	4.27 ± 0.14

Sequence	folding stability dG unfold [1] [kcal/mol]	folding stability dG unfold [2] [kcal/mol]	folding stability dG unfold [3] [kcal/mol]
SAGGSAGGKYEIVEVEEKEVNGEKYLIFKVKNENGEELLITVSKEDAEKILASLPPGATVEILPSAGGSAGG [r6_111_TrROS_Hall]	3.84 ± 0.25	3.76 ± 0.14	3.49 ± 0.56
SAGGSAGGSAGGNYFMMVVLEIRLPPELKGMSPEEWLKKNGYEVTEIEIKGIYPFPPPDGSAGGSAGGSAGG [r7_62_TrROS]	2.9 ± 0.1	3.31 ± 0.062	2.02 ± 0.12
SAGGSAGGELELELTVRLPNGLEVRIRARVKFDEETNEWTITEIEIEIRPLPPPPVLDKDGKLVSAGGSAGG [r6_506_TrROS_Hall]	2.93 ± 0.47	3.04 ± 0.31	3.24 ± 0.19
SAMKWSEVVVSYPSDRWYAEIYTPGPGGELTSVSYREFDSLEELEQWIEEKAPPGEVEVKREPAPPELLSAG [r14_964_JUSTAS]	0.967 ± 0.051	0.722 ± 0.094	1.17 ± 0.033
SAGGKKFYVEVKINLKDKTIYLIKEVKPGNLEKLIKEIEKKGIKEAGIDEIKIFPKDGYIEIKGGEKSAGGS [r8_219_TrMRF]	0.801 ± 0.1	1.18 ± 0.08	0.279 ± 0.061
SMKIEVSGGNVTVEMYMWRRKKERDPDDPGKERDQPEPMPQTHTIDPNDPEAAKKFLDKFPPGFRPEIHDSA [r9_476_TrROS]	0.446 ± 0.25	0.0896 ± 0.43	0.594 ± 0.19
SAGGSAGGSAMIVVPVDLVRERLDELVFRGEDGVEYRAEVRVFEVGDRPVAVIDLRPLDEDGSAGGSAGGSA [r18_447_TrMRF]	0.823 ± 0.048	0.994 ± 0.047	0.467 ± 0.025
SAGKKIKLELYFEENGLKVEVEFDEETGVITVKVELKDGTRIEAKFELLPDGTLKLEIKIEKVKPGEKPSAG [r5_766_TrROS_Hall]	3.49 ± 0.46	3.87 ± 0.27	2.94 ± 0.15
SAGGSAGGSAGVVLTEDGYAVATVTVTTTTVEYDEETGEWKETTTTTTETLTVVVPVGATSAGGSAGGSAGG [r17_527_TrROS_Hall]	2.22 ± 0.098	1.6 ± 0.14	2.66 ± 0.2
SAMSLTIETDGSLEDVIAALKAFLEANPNVPFIISPPNGEVKVIDLGLADKILVIPDPDGKVRITVINPSAG [r14_807_TrMRF]	1.75 ± 0.036	1.7 ± 0.024	1.76 ± 0.023
SAGGGHMVNVTLTGSSIEEIKKELEELAKKYGFVINPKKVEKLPGPKYKITLNIKAPDEVVELIKKKSAGGS [r8_357_JUSTAS]	1.72 ± 0.13	2.16 ± 0.053	0.943 ± 0.044
SAGGSAGGGMSLEAPIGEIEKPEGTDTVVITVYENGKWHTIPLPNFKNIKIEKDPNSDVVTILLSAGGSAGG [r6_806_JUSTAS]	1.52 ± 0.18	1.71 ± 0.13	1.29 ± 0.1
SAGGSAGGSSVIEVTFSDGSKALFFPGSQKVVVYNPSTKKKIVIPPGVSPETALKAIAEGKPISAGGSAGGS [r12_832_TrMRF]	0.671 ± 0.13	0.185 ± 0.073	0.91 ± 0.056
SAGGSAGGSAGMKTTYDPDTNKLSITLPNGTVATYYLGTGVIEIPDEVSSKEDIKVEKAASAGGSAGGSAGG [r17_174_JUSTAS]	0.79 ± 0.15	0.956 ± 0.17	0.321 ± 0.11
SPRIKIDIPFFNANGHPQEVEIEYSPTDGMLMIKFPRNGYYIMIQIKRIEWEDGKLEIELDIFIMPPGDFSA [r9_587_TrROS]	4.17 ± 0.43	4.55 ± 0.22	3.01 ± 0.18
SARIRFPDGKPIDMEIVNIHRTPNGLTITIVLRHKDEYRVITFEIPPDGEIRIKSVERVPLPPGDPALVSAG [r14_13_TrROS]	2.96 ± 0.12	3.37 ± 0.059	1.46 ± 0.059
SAGGSDVEIEVFENAIIITIPLDLDNGKGETVEVRIIAPFTPDGRPIFRIEVINPDSDEVVTFTFPSAGGSA [r2_484_TrMRF]	2.71 ± 0.068	2.766 ± 0.017	2.66 ± 0.081
SMIIPPELGFEEAVELIKELLEPEKTYLVVTGDPETGTLSVARLDPETGEVEVEPLPTTEGESFVAVFEISA [r9_1059_TrMRF]	1.27 ± 0.07	1.3 ± 0.059	1.09 ± 0.044
SMKIVIVKNKDGTVIVRITFPNGEEITITAKTEEEAKKAIEELIKKLQEKYNIKIKIEVKPVKPGEVIEESA [r9_786_TrROS_Hall]	2.93 ± 0.15	2.84 ± 0.08	2.92 ± 0.093
SAGGSASAEEAARAFVAAHPDRALVEVEIERSFIPEKGVEVVTLTVTLAFPDGSRRVVPVTVTRPRSAGGSA [r15_266_JUSTAS]	1.13 ± 0.071	1.06 ± 0.044	1.11 ± 0.044
SKIEIEVFPEEGFIRIRLEAENLTEEELKDAIIEFIKSLGFPAEVEILRIEPSGNTIRIEALVKVEPGYLSA [r9_347_TrMRF]	2.97 ± 0.093	2.673 ± 0.022	3.27 ± 0.12
